Experimental data taken from US20250171556A1 (VIRTUOSO BINCO, published 2025).
Read-outs that look alike come from different tables or passages of the source.

Legend:
CD47 on human cells [1] = target: T1, CD47 on human cells (human, UniProt Q08722 19-323); assay: flow cytometry, blocking of SIRPα-mIgG2a fusion protein (0.2 µg/mL) binding to CD47 on Raji cells (EpCAM-/CD47+), inhibition (%)
T1 construct: whole, on cells; Endogenous CD47 on cells; also called CD47 on Raji cells; CD47 on HCT-15 cells
Experimental: (§1) Tumor cells were harvested, centrifuged, and then resuspended in FACS buffer (PBS plus 2% FBS) at a concentration of 2×10⁶ cells/mL. 100 μL of the cell suspension was dispensed into each well of a 96-well plate. The plate was centrifuged for 5 min and 300×g, and the supernatants were discarded. […] Then, the plates were washed twice with FACS buffer and incubated for 1 hour at 4° C. in the dark with 100 μL of Alexa Fluor 488 donkey anti-Mouse IgG (H+L) secondary antibody (Invitrogen, Cat #A21202, 1:1000). After washing twice with FACS buffer, the plates were resuspended with 300 μL FACS buffer and analyzed by flow cytometry.

recombinant human CD47 [2] = target: T2, recombinant human CD47 (human, UniProt Q08722 19-139, limits assumed); assay: ELISA, plate coated with recombinant human CD47, detection with peroxidase anti-human IgG (Fab specific), OD450
T2 construct: Recombinant protein for ELISA coating; also called human CD47 recombinant protein
Experimental: (§2) A 96-well plate was coated overnight at 4° C. with 1 μg/mL recombinant human CD47 or human EGFR. After washing 3 times, the plate was blocked with 300 μL 1% BSA in PBST at 37° C. for 1 hour. Serially diluted antibodies were added and incubated at 37° C. for 1 hour. The plate was then washed 4 times with PBST and incubated with 1:5000 diluted peroxidase labeled goat anti-human IgG (Fab specific) secondary antibody (Sigma, Cat #A0293) for 1 hour at 37° C. The plate was washed again 4 times with PBST, incubated with 3,3′,5,5′-tetramethylbenzidine (TMB) substrate for 15 min at room temperature, terminated with 1N HCl, and then read at 450 nm.

CD47 on human cells [3] = target: T1, CD47 on human cells; assay: flow cytometry competition with SIRPα-mIgG2a; IC50 on HCT-15 cells against IC50 on Raji cells
Experimental: as §1

CD47 on human cells [4] = target: T1, CD47 on human cells; assay: flow cytometry competition with SIRPα-mIgG2a (1 µg/mL) on EpCAM-high HCT-15 cells; EpCAM high HCT-15 cells; SIRPα-mIgG2a 1 µg/mL
Experimental: as §1

CD47 on human cells [5] = target: T1, CD47 on human cells; assay: flow cytometry on a mixture of HCT-15 cells and RBCs; EC50 on HCT-15 cells against EC50 on RBCs
Experimental: (§4) Binding of antibodies on mixed tumor cells and RBCs was performed by FACS. In brief, antibodies were incubated with a mixture of HCT-15 tumor cells and RBCs (in 20-fold excess of tumor) for 1 h at 4° C. The binding of antibodies on HCT-15 cells and RBCs were identified by using different FACS markers and detected by flow cytometry.

recombinant human EpCAM [6] = target: T3, recombinant human EpCAM (human, UniProt P16422 24-265); assay: ELISA, plate coated with recombinant human EpCAM, detection with peroxidase anti-human IgG (Fab specific), OD450
T3 construct: Recombinant protein for ELISA coating; also called human EpCAM recombinant protein
T3 sequence (looked up): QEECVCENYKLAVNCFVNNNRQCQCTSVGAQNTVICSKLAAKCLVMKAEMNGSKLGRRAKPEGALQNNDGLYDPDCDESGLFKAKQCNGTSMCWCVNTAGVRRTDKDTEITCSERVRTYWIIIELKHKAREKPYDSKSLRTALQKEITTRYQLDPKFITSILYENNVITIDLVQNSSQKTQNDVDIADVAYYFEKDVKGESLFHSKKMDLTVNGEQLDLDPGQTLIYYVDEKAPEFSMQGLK
Experimental: as §2, with “μg/ml” for “μg/mL”, “EpCAM.” for “EGFR.”, “μl” for “μL”

CD47 on human cells [7] = target: T1, CD47 on human cells; assay: flow cytometry on a mixture of HCT-15 tumor cells and a 20-fold excess of RBCs, signal on the HCT-15 cells (EpCAM+/CD47+, so both arms of the bispecific can take part), % of selective binding
Experimental: as §4

CD47 on human cells [8] = target: T1, CD47 on human cells; assay: flow cytometry, blocking of SIRPα-mIgG2a fusion protein (1 µg/mL) binding to CD47 on HCT-15 cells (EpCAM+++/CD47+), inhibition (%)
Experimental: as §1

CD47 on human cells [9] = target: T1, CD47 on human cells; assay: flow cytometry competition with SIRPα-mIgG2a (0.2 µg/mL) on EpCAM-negative Raji cells; EpCAM negative Raji cells; SIRPα-mIgG2a 0.2 µg/mL
Experimental: as §1

recombinant human CD47 [10] = target: T2, recombinant human CD47; assay: ELISA, plate coated with recombinant human CD47, detection with peroxidase anti-human IgG (Fab specific), OD450; remark: listed apart in the source
Experimental: as §2, with “μg/ml” for “μg/mL”, “EpCAM.” for “EGFR.”, “μl” for “μL”

recombinant human EpCAM [11] = target: T3, recombinant human EpCAM; assay: ELISA, plate coated with recombinant human EpCAM, detection with peroxidase anti-human IgG (Fab specific), OD450; remark: listed apart in the source
Experimental: as §2, with “μg/ml” for “μg/mL”, “EpCAM.” for “EGFR.”, “μl” for “μL”
(§3) ELISA assay was performed as described in EXAMPLE 3.

recombinant human CD47 [12] = target: T2, recombinant human CD47; assay: ELISA, plate coated with recombinant human CD47, detection with peroxidase anti-human IgG (Fab specific), OD450; remark: listed apart in the source
Experimental: as §2, with “μg/ml” for “μg/mL”, “EpCAM.” for “EGFR.”, “μl” for “μL”
as §3

B1: VIR47.V8 (antibody, human IgG1, lambda, V domains shown)
VH: EVQLLESGGGLVQPGGSLRLSCAASGFTFSNFAMSWVRQAPGKGLEWVSTISASGGRTFYADSVKGRFTISRDNSKNTLYLQMNSLRAEDTAVYYCAKEGSFGEGVDPWGQGTLVTVSS
VL: SYELTQPPSVSVSPGQTARITCSGDALPKKYAYWYQQKSGQAPVLVIYEDNKRPSGIPERFSGSSSGTMATLTISGAQVEDEADYYCYSTDISGNHWVFGGGTKLTVLG
notes: Bivalent monospecific parental anti-CD47 antibody; also called parental CD47 antibody VIR47.V8; anti-CD47 bivalent antibody (VIR47.V8)
CD47 on human cells [1]
  IC50 (read off the curve): ~8 nM
Recombinant human CD47 [2]
  EC50 (read off the curve): ~0.05 nM

B2: CD47×EpCAM_v5 (bispecific antibody, human IgG1, lambda)
heavy: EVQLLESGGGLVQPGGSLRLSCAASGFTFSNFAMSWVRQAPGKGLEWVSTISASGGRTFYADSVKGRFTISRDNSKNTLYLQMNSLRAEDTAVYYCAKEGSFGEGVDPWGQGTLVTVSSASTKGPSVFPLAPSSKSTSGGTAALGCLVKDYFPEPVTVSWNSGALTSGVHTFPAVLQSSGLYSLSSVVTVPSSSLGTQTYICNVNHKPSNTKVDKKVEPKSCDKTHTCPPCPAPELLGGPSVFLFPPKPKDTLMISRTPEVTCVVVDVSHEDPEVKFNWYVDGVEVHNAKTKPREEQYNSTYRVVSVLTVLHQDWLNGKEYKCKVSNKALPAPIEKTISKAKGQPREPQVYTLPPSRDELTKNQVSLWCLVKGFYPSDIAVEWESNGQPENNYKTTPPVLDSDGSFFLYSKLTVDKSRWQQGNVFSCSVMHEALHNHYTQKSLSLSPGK
light: SYELTQPPSVSVSPGQTARITCSGDALPKKYAYWYQQKSGQAPVLVIYEDNKRPSGIPERFSGSSSGTMATLTISGAQVEDEADYYCYSTDISGNHWVFGGGTKLTVLGQPKAAPSVTLFPPSSEELQANKATLVCLISDFYPGAVTVAWKADSSPVKAGVETTTPSKQSNNKYAASSYLSLTPEQWKSHRSYSCQVTHEGSTVEKTVAPTECS
scFv: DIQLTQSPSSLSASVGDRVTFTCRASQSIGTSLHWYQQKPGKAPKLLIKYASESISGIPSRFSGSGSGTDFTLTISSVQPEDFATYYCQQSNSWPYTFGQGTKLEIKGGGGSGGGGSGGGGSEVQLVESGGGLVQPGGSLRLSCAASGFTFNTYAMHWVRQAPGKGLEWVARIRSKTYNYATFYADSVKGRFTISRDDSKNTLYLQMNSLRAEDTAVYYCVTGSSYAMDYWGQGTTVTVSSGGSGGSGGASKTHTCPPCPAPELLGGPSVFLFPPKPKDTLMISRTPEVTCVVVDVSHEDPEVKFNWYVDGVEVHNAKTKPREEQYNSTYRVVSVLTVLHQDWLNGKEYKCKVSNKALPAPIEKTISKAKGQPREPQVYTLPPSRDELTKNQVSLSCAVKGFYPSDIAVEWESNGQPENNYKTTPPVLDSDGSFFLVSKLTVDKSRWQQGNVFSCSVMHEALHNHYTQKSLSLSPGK
notes: Three-chain knob-into-hole bispecific: anti-CD47 Fab arm (VIR47.V8) and anti-EpCAM scFv arm (Mab002-11), human IgG1 backbone; also called anti-CD47×EpCAM bispecific antibody
CD47 on human cells [3]
  fold difference of IC50 (HCT-15 cells against Raji cells): ~500 fold
CD47 on human cells [4]
  IC50: < 1 nM
CD47 on human cells [5]
  fold difference of binding EC50 (tumor cells against RBCs): > 200 fold
Recombinant human EpCAM [6]
  EC50 (read off the curve): ~0.8 nM
CD47 on human cells [7]
  EC50 (read off the curve): ~0.09 nM
CD47 on human cells [8]
  IC50 (read off the curve): ~0.3 nM
CD47 on human cells [9]
  IC50: > 100 nM
Recombinant human CD47 [10]
  EC50 (read off the curve): ~1 nM

B3: CD47×EpCAM_v10 (bispecific antibody, human IgG1, lambda)
heavy: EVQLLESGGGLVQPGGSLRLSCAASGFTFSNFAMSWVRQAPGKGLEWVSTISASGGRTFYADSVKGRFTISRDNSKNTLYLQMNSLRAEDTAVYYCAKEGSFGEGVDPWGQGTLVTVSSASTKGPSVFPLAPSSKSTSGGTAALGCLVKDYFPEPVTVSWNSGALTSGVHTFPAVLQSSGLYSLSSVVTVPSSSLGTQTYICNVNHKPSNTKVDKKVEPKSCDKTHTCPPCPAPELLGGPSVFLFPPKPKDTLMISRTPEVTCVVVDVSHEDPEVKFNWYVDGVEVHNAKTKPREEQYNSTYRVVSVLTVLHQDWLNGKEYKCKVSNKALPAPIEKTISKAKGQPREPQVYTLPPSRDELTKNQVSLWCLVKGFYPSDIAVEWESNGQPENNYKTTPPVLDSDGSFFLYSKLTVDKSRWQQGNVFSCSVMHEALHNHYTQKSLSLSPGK
light: SYELTQPPSVSVSPGQTARITCSGDALPKKYAYWYQQKSGQAPVLVIYEDNKRPSGIPERFSGSSSGTMATLTISGAQVEDEADYYCYSTDISGNHWVFGGGTKLTVLGQPKAAPSVTLFPPSSEELQANKATLVCLISDFYPGAVTVAWKADSSPVKAGVETTTPSKQSNNKYAASSYLSLTPEQWKSHRSYSCQVTHEGSTVEKTVAPTECS
scFv: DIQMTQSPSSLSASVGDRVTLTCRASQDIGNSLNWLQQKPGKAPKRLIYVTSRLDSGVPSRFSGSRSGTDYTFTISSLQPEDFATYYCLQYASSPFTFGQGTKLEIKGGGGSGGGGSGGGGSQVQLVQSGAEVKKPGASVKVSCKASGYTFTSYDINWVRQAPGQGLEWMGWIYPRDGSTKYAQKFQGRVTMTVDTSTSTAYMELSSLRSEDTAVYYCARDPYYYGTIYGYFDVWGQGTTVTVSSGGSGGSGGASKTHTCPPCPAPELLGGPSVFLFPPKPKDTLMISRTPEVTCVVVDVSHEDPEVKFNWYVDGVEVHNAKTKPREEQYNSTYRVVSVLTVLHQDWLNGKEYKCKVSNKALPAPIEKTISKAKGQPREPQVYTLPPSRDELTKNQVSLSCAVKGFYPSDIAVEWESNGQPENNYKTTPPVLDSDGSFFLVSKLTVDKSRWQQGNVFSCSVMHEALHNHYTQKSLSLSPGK
notes: Three-chain knob-into-hole bispecific: anti-CD47 Fab arm and anti-EpCAM scFv arm (Mab001-12)
Recombinant human EpCAM [11]
  EC50 (read off the curve): ~9 nM
Recombinant human CD47 [12]
  EC50 (read off the curve): ~1 nM

B4: CD47×EpCAM_v11 (bispecific antibody, human IgG1, lambda)
heavy: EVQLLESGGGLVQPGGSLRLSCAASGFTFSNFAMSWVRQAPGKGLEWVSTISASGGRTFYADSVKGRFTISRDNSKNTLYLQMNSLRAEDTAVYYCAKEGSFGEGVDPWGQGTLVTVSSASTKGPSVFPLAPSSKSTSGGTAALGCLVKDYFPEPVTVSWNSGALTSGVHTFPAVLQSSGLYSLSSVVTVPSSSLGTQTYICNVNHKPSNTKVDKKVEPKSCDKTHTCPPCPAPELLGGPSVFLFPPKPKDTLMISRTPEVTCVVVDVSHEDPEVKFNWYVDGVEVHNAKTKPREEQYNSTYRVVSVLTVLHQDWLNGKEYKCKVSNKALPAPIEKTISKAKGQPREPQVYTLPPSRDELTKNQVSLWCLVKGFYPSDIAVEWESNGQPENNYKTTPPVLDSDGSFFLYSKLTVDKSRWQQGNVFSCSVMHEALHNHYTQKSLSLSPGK
light: SYELTQPPSVSVSPGQTARITCSGDALPKKYAYWYQQKSGQAPVLVIYEDNKRPSGIPERFSGSSSGTMATLTISGAQVEDEADYYCYSTDISGNHWVFGGGTKLTVLGQPKAAPSVTLFPPSSEELQANKATLVCLISDFYPGAVTVAWKADSSPVKAGVETTTPSKQSNNKYAASSYLSLTPEQWKSHRSYSCQVTHEGSTVEKTVAPTECS
scFv: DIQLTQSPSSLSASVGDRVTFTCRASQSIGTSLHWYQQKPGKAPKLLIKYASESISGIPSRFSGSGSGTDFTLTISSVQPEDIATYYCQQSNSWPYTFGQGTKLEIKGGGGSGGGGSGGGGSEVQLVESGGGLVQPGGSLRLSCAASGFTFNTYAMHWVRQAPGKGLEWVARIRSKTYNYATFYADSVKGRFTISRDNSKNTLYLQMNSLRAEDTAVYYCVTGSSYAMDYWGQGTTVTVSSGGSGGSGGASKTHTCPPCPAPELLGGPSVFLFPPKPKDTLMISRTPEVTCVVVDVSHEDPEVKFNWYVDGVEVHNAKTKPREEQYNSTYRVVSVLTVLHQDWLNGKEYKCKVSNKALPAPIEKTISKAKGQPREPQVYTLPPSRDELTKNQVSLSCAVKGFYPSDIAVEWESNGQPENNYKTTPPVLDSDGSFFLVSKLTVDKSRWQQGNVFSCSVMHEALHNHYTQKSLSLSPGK
notes: Three-chain knob-into-hole bispecific: anti-CD47 Fab arm and anti-EpCAM scFv arm (Mab002-8)
Recombinant human EpCAM [11]
  EC50 (read off the curve): ~0.1 nM
Recombinant human CD47 [12]
  EC50 (read off the curve): ~0.4 nM

B5: CD47×EpCAM_v9 (bispecific antibody, human IgG1, kappa)
heavy: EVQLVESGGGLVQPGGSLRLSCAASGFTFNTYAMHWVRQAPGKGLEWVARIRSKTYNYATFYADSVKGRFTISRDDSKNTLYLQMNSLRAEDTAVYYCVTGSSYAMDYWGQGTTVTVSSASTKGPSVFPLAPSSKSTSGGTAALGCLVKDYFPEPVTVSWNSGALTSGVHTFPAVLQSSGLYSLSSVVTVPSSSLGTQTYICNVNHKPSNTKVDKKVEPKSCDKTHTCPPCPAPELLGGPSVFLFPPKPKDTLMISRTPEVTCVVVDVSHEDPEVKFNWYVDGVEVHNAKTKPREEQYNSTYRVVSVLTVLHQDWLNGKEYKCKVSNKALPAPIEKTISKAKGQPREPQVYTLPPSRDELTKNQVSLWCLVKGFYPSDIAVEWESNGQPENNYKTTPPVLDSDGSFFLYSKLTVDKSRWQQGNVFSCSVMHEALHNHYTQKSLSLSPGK
light: DIQLTQSPSSLSASVGDRVTFTCRASQSIGTSLHWYQQKPGKAPKLLIKYASESISGIPSRFSGSGSGTDFTLTISSVQPEDFATYYCQQSNSWPYTFGQGTKLEIKRTVAAPSVFIFPPSDEQLKSGTASVVCLLNNFYPREAKVQWKVDNALQSGNSQESVTEQDSKDSTYSLSSTLTLSKADYEKHKVYACEVTHQGLSSPVTKSFNRGEC
scFv: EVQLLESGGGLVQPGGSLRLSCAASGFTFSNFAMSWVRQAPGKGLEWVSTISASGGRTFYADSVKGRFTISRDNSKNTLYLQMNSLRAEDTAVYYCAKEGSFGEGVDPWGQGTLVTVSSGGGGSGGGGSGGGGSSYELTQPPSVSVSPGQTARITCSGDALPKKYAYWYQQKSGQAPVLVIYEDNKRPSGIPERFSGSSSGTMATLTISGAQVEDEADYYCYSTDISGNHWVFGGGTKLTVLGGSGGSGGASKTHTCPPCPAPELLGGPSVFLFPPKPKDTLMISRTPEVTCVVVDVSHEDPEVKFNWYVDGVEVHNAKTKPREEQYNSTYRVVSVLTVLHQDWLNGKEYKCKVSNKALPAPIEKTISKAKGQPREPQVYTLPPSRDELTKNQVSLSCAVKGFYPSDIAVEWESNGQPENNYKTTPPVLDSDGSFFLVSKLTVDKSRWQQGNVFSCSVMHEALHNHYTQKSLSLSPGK
notes: Three-chain knob-into-hole bispecific: anti-EpCAM Fab arm and anti-CD47 scFv arm
Recombinant human EpCAM [11]
  EC50 (read off the curve): ~0.1 nM
Recombinant human CD47 [12]
  EC50 (read off the curve): ~7 nM
